Assay results published in patent US20210087522.

Key:
[1] = target: T1, AFACP, ACP of the FAS from Anabaena
T1 chain: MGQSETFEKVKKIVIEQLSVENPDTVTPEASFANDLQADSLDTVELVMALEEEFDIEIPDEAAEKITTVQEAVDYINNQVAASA

[2] = target: T2, APNPCP, CP of an uncharacterized NRP/PK gene cluster from Anabaena
T2 chain: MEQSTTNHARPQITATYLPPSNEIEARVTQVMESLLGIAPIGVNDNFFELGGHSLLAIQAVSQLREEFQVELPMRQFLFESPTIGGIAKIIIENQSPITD

[3] = target: ScACP, ACP of a putative concanamycin gene cluster from Streptomyces coelicolor A(3)2
[4] = target: T3, MACP, CP of an uncharacterized NRP/PK gene cluster from M. aeruginosa NIES843
T3 chain: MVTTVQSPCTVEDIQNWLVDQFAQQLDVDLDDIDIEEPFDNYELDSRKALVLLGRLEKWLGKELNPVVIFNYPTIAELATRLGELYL

[5] = target: T4, APACP, ACP of the glycolipid PKS in Anabaena
T4 chain: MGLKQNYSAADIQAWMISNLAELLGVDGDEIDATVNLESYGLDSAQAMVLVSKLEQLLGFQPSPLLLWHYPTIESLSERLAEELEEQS

[6] = target: AprACP, ACP of the apratoxin (PK/NRP) gene cluster in Lyngbya sp.
[7] = target: T5, FisPCP, PCP of the shinorine gene cluster from Fischerella
T5 chain: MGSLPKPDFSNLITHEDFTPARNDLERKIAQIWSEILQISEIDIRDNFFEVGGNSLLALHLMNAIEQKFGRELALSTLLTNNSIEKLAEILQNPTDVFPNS

[8] = target: T6, SsPCP, PCP of a thaxtomin cluster from Streptomyces scabiei 87.22
T6 chain: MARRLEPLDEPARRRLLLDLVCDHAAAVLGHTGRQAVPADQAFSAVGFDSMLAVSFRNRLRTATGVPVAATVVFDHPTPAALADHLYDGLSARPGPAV

[9] = target: T7, SFACP, ACP of the FAS from Synechocystis
T7 chain: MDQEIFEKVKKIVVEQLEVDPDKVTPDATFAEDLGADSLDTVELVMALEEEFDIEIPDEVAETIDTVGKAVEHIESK

[10] = target: T8, FNsACP, homolog of ArCPNp from Fischerella
T8 chain: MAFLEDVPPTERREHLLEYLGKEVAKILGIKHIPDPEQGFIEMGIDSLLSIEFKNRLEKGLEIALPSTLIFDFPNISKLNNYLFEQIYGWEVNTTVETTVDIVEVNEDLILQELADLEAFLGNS

[11] = target: T9, FNPCP, CP of an uncharacterized NRP gene cluster from Fischerella
T9 chain: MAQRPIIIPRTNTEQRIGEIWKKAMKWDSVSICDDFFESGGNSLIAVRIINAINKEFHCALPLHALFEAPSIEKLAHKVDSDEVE

B1: SPPT, Sfp-like phosphopantetheinyl transferase (PPTase) from Synechocystis sp. PCC6803 (protein)
chain: MLPQPQIWLCPTDRPLIPGYQALLSSEEMARGERYQRPQDKQRFLTMRLALRILLARQLDCLPQQLQFTYGPQGKPELVDRERRSPWFNVAHSGNYGLIGLSTEGEIGVDLQIMLPKPHYLKLAKRFFAPQEVQQLESLEGEKRTKLFYQLWTAKEAFLKATGKGISGGLNQVIPDENLAKYQYLPDSGDTNHWRLSSQPLLADQGSNDNYWMAIAWCTNEVNQVESNYLPNIQPFQWPRNLDSLP
- Km [1]: 13.3 µM
- kcat [1]: 0.245 s⁻¹
- kcat/Km [1]: 18300 M⁻¹ s⁻¹
- phosphopantetheinylation of CP (apo to holo), LC-MS [1]: SPPT also phosphopantetheinylated all CP substrates except ScACP
- relative conversion (most active PPTase = 100%) [1]: SPPT promoted >71% relative conversion of eight cyanobacterial CPs
- Km [2]: 17 µM
- kcat [2]: 0.0383 s⁻¹
- kcat/Km [2]: 1670 M⁻¹ s⁻¹
- phosphopantetheinylation of CP (apo to holo), LC-MS [2]: SPPT also phosphopantetheinylated all CP substrates except ScACP
- phosphopantetheinylation of CP (apo to holo), LC-MS; not modified [3]: SPPT also phosphopantetheinylated all CP substrates except ScACP
- relative activity (most active PPTase = 100%) [3]: the low or no activity toward MACP, SsPCP and ScACP
- Km [4]: 22 µM
- kcat [4]: 0.0717 s⁻¹
- kcat/Km [4]: 3330 M⁻¹ s⁻¹
- phosphopantetheinylation of CP (apo to holo), LC-MS [4]: SPPT also phosphopantetheinylated all CP substrates except ScACP
- relative activity (most active PPTase = 100%) [4]: the low or no activity toward MACP, SsPCP and ScACP
- Km [5]: 26.5 µM
- kcat [5]: 0.243 s⁻¹
- kcat/Km [5]: 8330 M⁻¹ s⁻¹
- phosphopantetheinylation of CP (apo to holo), LC-MS [5]: SPPT also phosphopantetheinylated all CP substrates except ScACP
- relative conversion (most active PPTase = 100%) [5]: SPPT promoted >71% relative conversion of eight cyanobacterial CPs
- Km [6]: 12.9 µM
- kcat [6]: 0.218 s⁻¹
- kcat/Km [6]: 16700 M⁻¹ s⁻¹
- phosphopantetheinylation of CP (apo to holo), LC-MS [6]: SPPT also phosphopantetheinylated all CP substrates except ScACP
- relative conversion (most active PPTase = 100%) [6]: SPPT promoted >71% relative conversion of eight cyanobacterial CPs
- Km [7]: 10 µM
- kcat [7]: 0.0417 s⁻¹
- kcat/Km [7]: 5000 M⁻¹ s⁻¹
- phosphopantetheinylation of CP (apo to holo), LC-MS [7]: SPPT also phosphopantetheinylated all CP substrates except ScACP
- Km [8]: 14.3 µM
- kcat [8]: 0.0167 s⁻¹
- kcat/Km [8]: 1000 M⁻¹ s⁻¹
- phosphopantetheinylation of CP (apo to holo), LC-MS [8]: SPPT also phosphopantetheinylated all CP substrates except ScACP
- relative activity (most active PPTase = 100%) [8]: the low or no activity toward MACP, SsPCP and ScACP
- Km [9]: 1.5 µM
- kcat [9]: 0.0233 s⁻¹
- kcat/Km [9]: 6500 M⁻¹ s⁻¹
- phosphopantetheinylation of CP (apo to holo), LC-MS [9]: SPPT also phosphopantetheinylated all CP substrates except ScACP
- relative conversion (most active PPTase = 100%) [9]: SPPT promoted >71% relative conversion of eight cyanobacterial CPs
- Km [10]: 14.1 µM
- kcat [10]: 0.025 s⁻¹
- kcat/Km [10]: 1670 M⁻¹ s⁻¹
- phosphopantetheinylation of CP (apo to holo), LC-MS [10]: SPPT also phosphopantetheinylated all CP substrates except ScACP
- relative conversion (most active PPTase = 100%) [10]: SPPT promoted >71% relative conversion of eight cyanobacterial CPs
- Km [11]: 7 µM
- kcat [11]: 0.168 s⁻¹
- kcat/Km [11]: 23300 M⁻¹ s⁻¹
- phosphopantetheinylation of CP (apo to holo), LC-MS [11]: SPPT also phosphopantetheinylated all CP substrates except ScACP

B2: MPPT, Sfp-like phosphopantetheinyl transferase (PPTase) from Microcystis aeruginosa NIES843 (protein)
chain: MFISTDEVHLYFISLDPSGDRLETLASLLSEDEIIRANRYHFPEHKRRFLVARGCLREILGSYLAISPEKIEFIYSERGKPSINYQLQFNLSHSEEMAICGLTLTARIGVDLEKMRQMKDLDSLTKRFFCAREHELVEKSAEKEKLFFQLWTAKEAYLKAVGTGISGGLDRVEVGLNPLKLDNVAGEWQLWTAAIGDNYRATVVIEGSDRVIKTFGLSDL
- Km [1]: 6.9 µM
- kcat [1]: 0.14 s⁻¹
- kcat/Km [1]: 20000 M⁻¹ s⁻¹
- phosphopantetheinylation of CP (apo to holo), LC-MS [1]: APPT, AvPPT, MPPT and Sfp functionalized all substrates
- relative activity (most active PPTase = 100%) [1]: MPPT showed >84% relative activity toward all nine cyanobacterial CPs
- Km [2]: 9.5 µM
- kcat [2]: 0.0317 s⁻¹
- kcat/Km [2]: 3330 M⁻¹ s⁻¹
- phosphopantetheinylation of CP (apo to holo), LC-MS [2]: APPT, AvPPT, MPPT and Sfp functionalized all substrates
- relative activity (most active PPTase = 100%) [2]: MPPT showed >84% relative activity toward all nine cyanobacterial CPs
- Km [3]: 12.4 µM
- kcat [3]: 0.0433 s⁻¹
- kcat/Km [3]: 3330 M⁻¹ s⁻¹
- phosphopantetheinylation of CP (apo to holo), LC-MS [3]: APPT, AvPPT, MPPT and Sfp functionalized all substrates
- relative activity (most active PPTase = 100%) [3]: This enzyme also displayed a modest relative activity toward ScACP and SsPCP
- Km [4]: 4.9 µM
- kcat [4]: 0.07 s⁻¹
- kcat/Km [4]: 15000 M⁻¹ s⁻¹
- phosphopantetheinylation of CP (apo to holo), LC-MS [4]: APPT, AvPPT, MPPT and Sfp functionalized all substrates
- relative activity (most active PPTase = 100%) [4]: MPPT showed >84% relative activity toward all nine cyanobacterial CPs including the highest activity on MACP
- Km [5]: 23.1 µM
- kcat [5]: 0.353 s⁻¹
- kcat/Km [5]: 15000 M⁻¹ s⁻¹
- phosphopantetheinylation of CP (apo to holo), LC-MS [5]: APPT, AvPPT, MPPT and Sfp functionalized all substrates
- relative activity (most active PPTase = 100%) [5]: MPPT showed >84% relative activity toward all nine cyanobacterial CPs
- Km [6]: 9.1 µM
- kcat [6]: 0.173 s⁻¹
- kcat/Km [6]: 18300 M⁻¹ s⁻¹
- phosphopantetheinylation of CP (apo to holo), LC-MS [6]: APPT, AvPPT, MPPT and Sfp functionalized all substrates
- relative activity (most active PPTase = 100%) [6]: MPPT showed >84% relative activity toward all nine cyanobacterial CPs
- Km [7]: 7.2 µM
- kcat [7]: 0.0317 s⁻¹
- kcat/Km [7]: 5000 M⁻¹ s⁻¹
- phosphopantetheinylation of CP (apo to holo), LC-MS [7]: APPT, AvPPT, MPPT and Sfp functionalized all substrates
- relative activity (most active PPTase = 100%) [7]: MPPT showed >84% relative activity toward all nine cyanobacterial CPs
- Km [8]: 9.1 µM
- kcat [8]: 0.118 s⁻¹
- kcat/Km [8]: 11700 M⁻¹ s⁻¹
- phosphopantetheinylation of CP (apo to holo), LC-MS [8]: APPT, AvPPT, MPPT and Sfp functionalized all substrates
- relative activity (most active PPTase = 100%) [8]: This enzyme also displayed a modest relative activity toward ScACP and SsPCP
- Km [9]: 3.2 µM
- growth of Synechocystis mutant with the SPPT gene replaced [9]: demonstrated their in vivo function as activating SFACP for the synthesis of essential fatty acids
- kcat [9]: 0.02 s⁻¹
- kcat/Km [9]: 6670 M⁻¹ s⁻¹
- phosphopantetheinylation of CP (apo to holo), LC-MS [9]: APPT, AvPPT, MPPT and Sfp functionalized all substrates
- relative activity (most active PPTase = 100%) [9]: MPPT showed >84% relative activity toward all nine cyanobacterial CPs
- Km [10]: 8.3 µM
- kcat [10]: 0.035 s⁻¹
- kcat/Km [10]: 5000 M⁻¹ s⁻¹
- phosphopantetheinylation of CP (apo to holo), LC-MS [10]: APPT, AvPPT, MPPT and Sfp functionalized all substrates
- relative activity (most active PPTase = 100%) [10]: MPPT showed >84% relative activity toward all nine cyanobacterial CPs
- Km [11]: 7.2 µM
- kcat [11]: 0.16 s⁻¹
- kcat/Km [11]: 21700 M⁻¹ s⁻¹
- phosphopantetheinylation of CP (apo to holo), LC-MS [11]: APPT, AvPPT, MPPT and Sfp functionalized all substrates
- relative activity (most active PPTase = 100%) [11]: MPPT showed >84% relative activity toward all nine cyanobacterial CPs
